Values quoted from earlier work as cited in publication PMC8465902.

How the values were obtained:
ISCU (Homo sapiens) = ISCU (Homo sapiens) (UniProt Q9H1K1)
IscU (Escherichia coli) = IscU (Escherichia coli) (UniProt P0ACD4)
Chain of UniProt P0ACD4 (P0ACD4 whole entry): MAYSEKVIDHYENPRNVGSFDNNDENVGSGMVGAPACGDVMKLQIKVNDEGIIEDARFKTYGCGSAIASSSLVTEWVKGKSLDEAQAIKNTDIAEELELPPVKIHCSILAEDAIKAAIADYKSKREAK

Chain of UniProt Q9H1K1 (Q9H1K1 35-167): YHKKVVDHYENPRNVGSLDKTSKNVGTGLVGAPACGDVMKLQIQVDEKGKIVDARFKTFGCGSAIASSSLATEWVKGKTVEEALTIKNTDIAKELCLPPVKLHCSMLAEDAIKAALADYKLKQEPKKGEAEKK

In the case of NFU1 CTD (from UniProt Q9UMS0), the Kd (ISCU (Homo sapiens)) is listed as 1100 nM.

For IscS (from UniProt P0A6B7), the Kd (IscU (Escherichia coli)) is given as 2000 nM.
